Data from the supplement of paper PMC9170038.

Assays:
MS2 coat protein [1] = assay: apparent KD of MS2 coat protein, switch OFF state (with FMN for OFF switches, without FMN for ON switches); designed switch direction (-1 OFF switch, 1 ON switch): -1; higher = weaker reporter binding; conditions: FMN input: 0 or 200 uM; Eterna round: R93 (includes R88 designs)
How it was run: (§1)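 Values are apparent KD, taken as the median for each design of fits to normalised binding curves from individual clusters. The designed RNA switches were transcribed on-chip from Illumina sequencing clusters and exposed to SNAP-549-labelled MS2 coat protein at twofold increasing amounts from 0.7 or 1.5 nM to 3 µM. Titration used 100 mM Tris-HCl pH 7.5, 80 mM KCl and 4 mM MgCl2, without or with constant ligand.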

MS2 coat protein [2] = assay: apparent KD of MS2 coat protein, switch ON state; designed switch direction (-1 OFF switch, 1 ON switch): -1; higher = weaker reporter binding; conditions: FMN input: 0 or 200 uM; Eterna round: R93 (includes R88 designs)
How it was run: as §1

AACAGUACAGGAUAUACAUGAGGAUCACCCAUGUAGAGAGAAUAAAACAAAAAUAAAUGUAGAAGGGUACUGAA [Mat - Exclusion 3 - Eli mod - D68]
apparent KD of MS2 coat protein (MS2 coat protein [1]): 25.5 nM | apparent KD of MS2 coat protein (MS2 coat protein [2]): 24.5 nM

AACAGUACAGGAUAUACAUGAGGAUCACCCAUGUGAAAAUUAAGUGGCGAACCACAAUGUAGAAGGGUACUGGA [Mat - Exclusion 3 - Eli mod - D47]
apparent KD of MS2 coat protein (MS2 coat protein [1]): 25.9 nM | apparent KD of MS2 coat protein (MS2 coat protein [2]): 81.9 nM

AACAGUACAGGAUAUACAUGAGGAUCACCCAUGUGAAAAUUAAGUGGCGUACCACAGUGUAGAAGGGUACUGGA [Moding Maslow Revisited (73) 25]
apparent KD of MS2 coat protein (MS2 coat protein [1]): 62.7 nM | apparent KD of MS2 coat protein (MS2 coat protein [2]): 87.9 nM

AACAGUACAGGAUAUACAUGAGGAUCACCCAUGUGAGAAACCAGUGGCGUACCACAAAGUAGAAGGGUACUGGA [Moding Maslow Revisited (73) 28]
apparent KD of MS2 coat protein (MS2 coat protein [1]): 185 nM | apparent KD of MS2 coat protein (MS2 coat protein [2]): 42.4 nM

AACAGUACAGGAUAUACAUGAGGAUCACCCAUGUGGGUAAAAAGAUCGAGAGAUCCAUGUAGAAGGGUACUGGA [JL In the Red 05]
apparent KD of MS2 coat protein (MS2 coat protein [1]): 37.9 nM | apparent KD of MS2 coat protein (MS2 coat protein [2]): 36.7 nM

AACAUGUUAGGAUAUUCAAGAAAAGAAAAGAAAGAAAAGAAGAAGAAGGAACAUGAGGAUCACCCAUGUAAGAA [EteRNA is fun!]
apparent KD of MS2 coat protein (MS2 coat protein [1]): 27.1 nM | apparent KD of MS2 coat protein (MS2 coat protein [2]): 33.3 nM

AACCCGCUAGGAUAUACAGCAGGGAUUCGAAAACCCACGAAACAUGAGGAUCACCCAUGUAGAAGGAGUAGGGA [Bereatenat]
apparent KD of MS2 coat protein (MS2 coat protein [1]): 21.1 nM | apparent KD of MS2 coat protein (MS2 coat protein [2]): 22.7 nM

AACGCGUCAGGAUAUAGCAUAAAUUACGUAGUACGACCAUACUAGAAGGGACAUGAGGAUCACCCAUGUGGGUA [JR_Exc004_Sub207]
apparent KD of MS2 coat protein (MS2 coat protein [1]): 90.4 nM | apparent KD of MS2 coat protein (MS2 coat protein [2]): 167 nM

AACGGGCUAGGAUAUACACAAGCCUCAGAACAAAUAAACAAACAUGAGGAUCACCCAUGUAGAAGGAGCGCAAA [Lesocerean]
apparent KD of MS2 coat protein (MS2 coat protein [1]): 42.9 nM | apparent KD of MS2 coat protein (MS2 coat protein [2]): 30.6 nM

AACUAGUGAGGAUAUACAAGAAAAAAAAAAAAAAUAAAGGGACAUGAGGAUCACCCAUGUAGAAGGCACUAACA [Diamond 69]
apparent KD of MS2 coat protein (MS2 coat protein [1]): 64.9 nM | apparent KD of MS2 coat protein (MS2 coat protein [2]): 37.7 nM

AACUGACAUGAGGAUCACCCAUGUCAGGAUAUGACAUCGAAAAAUAAAUAAAUCGUUGUCAGAAGGGACAUGAA [Design 76: Sub-opt S]
apparent KD of MS2 coat protein (MS2 coat protein [1]): 14.9 nM | apparent KD of MS2 coat protein (MS2 coat protein [2]): 16.3 nM

AACUGACAUGAGGAUCACCCAUGUCAGGAUAUGAUUUGACGAAAAAAAAAAAGUCAUAUCAGAAGGGACAUGGA [Design 81: Sub-opt UB]
apparent KD of MS2 coat protein (MS2 coat protein [1]): 41.5 nM | apparent KD of MS2 coat protein (MS2 coat protein [2]): 24.7 nM

AACUGACAUGAGGAUCACCCAUGUCAGGAUAUGCUUCAUAAAAAAAAAAAAAAAUGAUGCAGAAGGGACAUGGG [Design 32 :P Sub-opt 8]
apparent KD of MS2 coat protein (MS2 coat protein [1]): 110 nM | apparent KD of MS2 coat protein (MS2 coat protein [2]): 41.6 nM

AACUGACAUGAGGAUCACCCAUGUCAGGAUAUGCUUCAUAAAAAGAAAUAAAAAUGAUGCAGAAGGGAUAUGGG [Design 34 :P Sub-opt 10]
apparent KD of MS2 coat protein (MS2 coat protein [1]): 37.1 nM | apparent KD of MS2 coat protein (MS2 coat protein [2]): 24.6 nM

AAGAAACAUGAGGAUCACCCAUGUGAGGAUAUCCAAGAAAGAAAGAAAGAAAGAAGAAGGAGAAGGCACAAAGG [Quintus Ostorius Scapula]
apparent KD of MS2 coat protein (MS2 coat protein [1]): 119 nM | apparent KD of MS2 coat protein (MS2 coat protein [2]): 50.5 nM

AAGAAACAUGAGGAUCACCCAUGUGAGGAUAUCGAAAAGAAAAGAAAAGAAAGAAGAACGAGAAGGCACAAAGG [Neferkare (V) Tereru]
apparent KD of MS2 coat protein (MS2 coat protein [1]): 76.2 nM | apparent KD of MS2 coat protein (MS2 coat protein [2]): 52.7 nM

AAGAAACAUGAGGAUCACCCAUGUGAGGAUAUGCAAGAAAGAAAGAAAGAAAGAAGAAGCAGAAGGCACAAAGG [Gaius Turranius]
apparent KD of MS2 coat protein (MS2 coat protein [1]): 65.9 nM | apparent KD of MS2 coat protein (MS2 coat protein [2]): 42.4 nM

AAGAAACGAGGAUAUACAAAAUAAAAGAAAAGAAAGAAAGAACAUGAGGAUCACCCAUGUAGAAGGCGUAAGAA [Wahibre Ibiau]
apparent KD of MS2 coat protein (MS2 coat protein [1]): 30.3 nM | apparent KD of MS2 coat protein (MS2 coat protein [2]): 44.6 nM

AAGAACAGAGGAUAUACAUGAGGAUCACCCAUGUAAAAGAAAGAAAAGGGAAAGAAAAGUAGAAGGCUGAAGAA [Ankhkheperure Smenkhkare]
apparent KD of MS2 coat protein (MS2 coat protein [1]): 42.8 nM | apparent KD of MS2 coat protein (MS2 coat protein [2]): 22.9 nM

AAGAACCGAGGAUAUACAUGAGGAUCACCCAUGUAAAAGAAAGAAAAGGGAAAGAAAAGUAGAAGGCGGAAGAA [Aakheperenre Thutmose II]
apparent KD of MS2 coat protein (MS2 coat protein [1]): 55.5 nM | apparent KD of MS2 coat protein (MS2 coat protein [2]): 42.8 nM

AAGAACGAAGGAUAUACAAAAUAAAAGAAAAGAAAGAAAGAACAUGAGGAUCACCCAUGUAGAAGGUCGAAGAA [Awybre Hor I]
apparent KD of MS2 coat protein (MS2 coat protein [1]): 25.8 nM | apparent KD of MS2 coat protein (MS2 coat protein [2]): 10.5 nM

AAGAACGAAGGAUAUACAUGAGGAUCACCCAUGUAAAAGAAAGAGGGAAAAGAGAAAAGUAGAAGGUCGAAGAA [Ptolemy VIII Euergetes II]
apparent KD of MS2 coat protein (MS2 coat protein [1]): 23.8 nM | apparent KD of MS2 coat protein (MS2 coat protein [2]): 20.4 nM

AAGAACGGAGGAUAUACAUGAAAGAAAGAAAAGAAAAGAAAACAUGAGGAUCACCCAUGUAGAAGGCCGAAGAA [EteRNA is fun!]
apparent KD of MS2 coat protein (MS2 coat protein [1]): 53.3 nM | apparent KD of MS2 coat protein (MS2 coat protein [2]): 23.4 nM

AAGAAGCAAGGAUAUACAUGAGGAUCACCCAUGUAAAAGAAAGAAAAGGGAAAGAAAAGUAGAAGGUGCAAGAA [Menmaatre Seti I]
apparent KD of MS2 coat protein (MS2 coat protein [1]): 27 nM | apparent KD of MS2 coat protein (MS2 coat protein [2]): 21.6 nM

AAGAAGCGAGGAUAUACAUGAAAGAAAGAAAAGAAAAGAAAACAUGAGGAUCACCCAUGUAGAAGGCGCAAGAA [EteRNA is fun!]
apparent KD of MS2 coat protein (MS2 coat protein [1]): 28.2 nM | apparent KD of MS2 coat protein (MS2 coat protein [2]): 21.4 nM

AAGAAGCGAGGAUAUACAUGAGGAUCACCCAUGUAAAAGAAAGAAGGGAAAGAGAAAAGUAGAAGGCGCAAGAA [Hedjkheperre-setpenre Takelot II]
apparent KD of MS2 coat protein (MS2 coat protein [1]): 109 nM | apparent KD of MS2 coat protein (MS2 coat protein [2]): 70.7 nM

AAGAAGGAAGGAUAUACAUGAGGAUCACCCAUGUAAAAGAAAGAAAGGGAAAAGAAAAGUAGAAGGUCCAAGAA [Aakheperre Setepenre Osorkon]
apparent KD of MS2 coat protein (MS2 coat protein [1]): 38.7 nM | apparent KD of MS2 coat protein (MS2 coat protein [2]): 25.4 nM

AAGAAGGUAGGAUAUACUAAAGAAAUAAAAAUAAAUAAAGAACAUGAGGAUCACCCAUGUAGAAGGGCCAAGAA [Merkheperre]
apparent KD of MS2 coat protein (MS2 coat protein [1]): 50.8 nM | apparent KD of MS2 coat protein (MS2 coat protein [2]): 54.4 nM

AAGAAGUAAGGAUAUCGGAGAGAACAAGAAAGUGAAGAAUACGAGAAGGUACAUGAGGAUCACCCAUGUAAAGA [EXC - 4]
apparent KD of MS2 coat protein (MS2 coat protein [1]): 19 nM | apparent KD of MS2 coat protein (MS2 coat protein [2]): 26.9 nM

AAGAAGUCAGGAUAUCGAAGACUGUCGAAAAGACAGUCGAACGAGAAGGGACAUGAGGAUCACCCAUGUGGAAA [Marsurpial 65% 7]
apparent KD of MS2 coat protein (MS2 coat protein [1]): 112 nM | apparent KD of MS2 coat protein (MS2 coat protein [2]): 56.3 nM

AAGAAGUGAGGAUAUACAAAAUAAAAGAAAAGAAAGAAAGAACAUGAGGAUCACCCAUGUAGAAGGCGCAAGAA [Merhotepre Ini]
apparent KD of MS2 coat protein (MS2 coat protein [1]): 24.9 nM | apparent KD of MS2 coat protein (MS2 coat protein [2]): 24.5 nM

AAGAAUAGAGGAUAUACAAGGAAGAAAGAAAAGAAAAGAAAACAUGAGGAUCACCCAUGUAGAAGGCUAUAGAA [EteRNA is fun!]
apparent KD of MS2 coat protein (MS2 coat protein [1]): 26.2 nM | apparent KD of MS2 coat protein (MS2 coat protein [2]): 30.9 nM

AAGAGUAGAGGAUAUACAAAGGGAGAGUCGAAAGACUCAAAACAUGAGGAUCACCCAUGUAGAAGGCUACUCAA [Hyphema Seclusion Mod 62% 7]
apparent KD of MS2 coat protein (MS2 coat protein [1]): 746 nM | apparent KD of MS2 coat protein (MS2 coat protein [2]): 213 nM

AAGAGUAGAGGAUAUACAUAAAAAGAGUCGAAAGACUCGGGACAUGAGGAUCACCCAUGUAGAAGGCUACUCAA [Hyphema Seclusion Mod 62% 4]
apparent KD of MS2 coat protein (MS2 coat protein [1]): 406 nM | apparent KD of MS2 coat protein (MS2 coat protein [2]): 98.6 nM

AAGAUGUGAGGAUAUGCUGCUCGUCACAAAAGUGAUGAGUAGCAGAAGGUACAUGAGGAUCACCCAUGUAAAGA [JL eternac mod 7]
apparent KD of MS2 coat protein (MS2 coat protein [1]): 20.9 nM | apparent KD of MS2 coat protein (MS2 coat protein [2]): 32.4 nM

AAGGAUAGAGGAUAUACAUAGAUACAGAUUCAUGUAGAACUACAUGAGGAUCACCCAUGUAGAAGGCUAUCAUA [AJ 32]
apparent KD of MS2 coat protein (MS2 coat protein [1]): 89.1 nM | apparent KD of MS2 coat protein (MS2 coat protein [2]): 27.9 nM

AAGGGACAUGAGGAUCACCCAUGUCAGGAUAUCGGAAAAGGAAAAAAAAAAAAGAAGACGAGAAGGGACACCAA
apparent KD of MS2 coat protein (MS2 coat protein [1]): 26.8 nM | apparent KD of MS2 coat protein (MS2 coat protein [2]): 28.6 nM

AAGGUAUAAGGAUAUGCAUAGAUACAGACACAUGUUCAAGUACAUGAGGAUCACCCAUGUAGAAGGUAUAUAUA [AJ 12]
apparent KD of MS2 coat protein (MS2 coat protein [1]): 26 nM | apparent KD of MS2 coat protein (MS2 coat protein [2]): 32.2 nM

AAGUCGUGAGGAUAUACAUGGAUAUACAUUCAUGUGGACCUACAUGAGGAUCACCCAUGUAGAAGGCACGAAUA [AJ 49]
apparent KD of MS2 coat protein (MS2 coat protein [1]): 53.5 nM | apparent KD of MS2 coat protein (MS2 coat protein [2]): 35.2 nM

AAUAAACAUGAGGAUCACCCAUGUGAGGAUAUGGUAUUAUUAGGACAGUAAUGAUAUACCAGAAGGCACAAAUA [JR_Exc001_Sub1104]
apparent KD of MS2 coat protein (MS2 coat protein [1]): 53.5 nM | apparent KD of MS2 coat protein (MS2 coat protein [2]): 36.9 nM
